Target: SARS-CoV S-6P protein (SARS-CoV; strain of S-6P  …, UniProt P59594, stabilised)
Test: cryo-EM structure

B1: antigen-binding fragment (Fab) of VacW-209 (Fab, V domains shown)
VH: QVQLVESGGGVVQPGRSLRLSCAASGFTFSSIAMHWVRQAPGKGLEWVAVMSFDGSIKYYGDSVKGRFTISRDNSKSTLYLQMNSLRAEDTAVYYCARGVQGYYDRSGYYNLDYNYGMDVWGQGTTVTVSS
VL: QSVLTQPPSVSGAPGQRVTISCTGSSSNIGAGYDVHWYQQLPGTAPKLLIYGNSNRPSGVPDRFSGSKSGTSASLAITGLQAEDEADYYCQSYDSSLSGWVFGGGTKLTVL
B1 was tested, and the “stoichiometry N” value was 3 Fabs per spike trimer.
